Reference: the supplement of paper PMC10567573

B1: SAT2 (parent)
chain: LTEAEGWHFFCFQGEATRKLAGK

Variants of: B1
Assay: protein stability index of a GFP-peptide fusion (GPS, HEK-293T) (PSI 1-6); higher = more stable
Settings: c terminus: native
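Note: lentivirally expressed fusions sorted by FACS into six bins by GFP to DsRed ratio, PSI derived from sequencing read proportions per bin multiplied by bin number.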

| Variant | protein stability index |
| --- | --- |
| LTEAEGWHFSCFQGEATRKLAGK | 4.25 |
| LTEAEGWHFQCFQGEATRKLAGK | 3.61 |
| LTEAEGWHFNCFQGEATRKLAGK | 3.94 |
| LTEAEGWHFTCFQGEATRKLAGK | 3.99 |
| LTEAEGWHFVCFQGEATRKLAGK | 2.34 |
| LTEAEGWHFACFQGEATRKLAGK | 3.48 |
| LTEAEGWHFRCFQGEATRKLAGK | 3.28 |
| LTEAEGWHFCCFQGEATRKLAGK | 2.56 |
| LTEAEGWHFKCFQGEATRKLAGK | 3.77 |
| LTEAEGWHFLCFQGEATRKLAGK | 2.68 |
| LTEAEGWHFHCFQGEATRKLAGK | 3.46 |
| LTEAEGWHFWCFQGEATRKLAGK | 1.94 |
| LTEAEGWHFECFQGEATRKLAGK | 4.18 |
| LTEAEGWHFPCFQGEATRKLAGK | 4.44 |
| LTEAEGWHFGCFQGEATRKLAGK | 4.09 |
| LTEAEGWHFDCFQGEATRKLAGK | 4.69 |
| LTEAEGWHFICFQGEATRKLAGK | 2.42 |
| LTEAEGWHFMCFQGEATRKLAGK | 3.39 |
| LTEAEGWHFYCFQGEATRKLAGK | 1.92 |
| LTEAEGWHFFCFQGWATRKLAGK | 1.77 |
| LTEAEGWHFFCFQGFATRKLAGK | 1.57 |
| LTEAEGWHFFCFQGAATRKLAGK | 1.59 |
| LTEAEGWHFFCFQGMATRKLAGK | 1.57 |
| LTEAEGWHFFCFQGPATRKLAGK | 1.97 |
| LTEAEGWHFFCFQGTATRKLAGK | 2.72 |

| Variant | protein stability index |
| --- | --- |
| LTEAEGWHFFCFQGHATRKLAGK | 2.13 |
| LTEAEGWHFFCFQGLATRKLAGK | 3.25 |
| LTEAEGWHFFCFQGCATRKLAGK | 2.15 |
| LTEAEGWHFFCFQGKATRKLAGK | 3.63 |
| LTEAEGWHFFCFQGSATRKLAGK | 1.74 |
| LTEAEGWHFFCFQGNATRKLAGK | 1.86 |
| LTEAEGWHFFCFQGGATRKLAGK | 2.09 |
| LTEAEGWHFFCFQGYATRKLAGK | 2.69 |
| LTEAEGWHFFCFQGEACRKLAGK | 1.8 |
| LTEAEGWHFFCFQGEAERKLAGK | 2.7 |
| LTEAEGWHFFCFQGEAPRKLAGK | 3.05 |
| LTEAEGWHFFCFQGEAQRKLAGK | 2.63 |
| LTEAEGWHFFCFQGEADRKLAGK | 2.79 |
| LTEAEGWHFFCFQGEAHRKLAGK | 1.77 |
| LTEAEGWHFFCFQGEAMRKLAGK | 2.46 |
| LTEAEGWHFFCFQGEAGRKLAGK | 2.15 |
| LTEAEGWHFFCFQGEAYRKLAGK | 2.01 |
| LTEAEGWHFFCFQGEAVRKLAGK | 2.21 |
| LTEAEGWHFFCFQGEANRKLAGK | 2.53 |
| LTEAEGWHFFCFQGEAIRKLAGK | 1.35 |
| LTEAEGWHFFCFQGEARRKLAGK | 2.26 |
| LTEAEGWHFFCFQGEAFRKLAGK | 1.61 |
| LTEAEGWHFFCFQGEASRKLAGK | 1.48 |
| LTEAEGWHFFCFQGEALRKLAGK | 2.04 |
| LTEAEGWHFFCFQPEATRKLAGK | 1.83 |

| Variant | protein stability index |
| --- | --- |
| LTEAEGWHFFCFQYEATRKLAGK | 3.67 |
| LTEAEGWHFFCFQSEATRKLAGK | 1.73 |
| LTEAEGWHFFCFQDEATRKLAGK | 3.17 |
| LTEAEGWHFFCFQCEATRKLAGK | 1.19 |
| LTEAEGWHFFCFQTEATRKLAGK | 2.1 |
| LTEAEGWHFFCFQEEATRKLAGK | 2.83 |
| LTEAEGWHFFCFQAEATRKLAGK | 2.48 |
| LTEAEGWHFFCFQNEATRKLAGK | 2.76 |
| LTEAEGWHFFCFQMEATRKLAGK | 1.76 |
| LTEAEGWHFFCFQHEATRKLAGK | 1.9 |
| LTEAEGWHFFCFQIEATRKLAGK | 4.25 |
| LTEAEGWHFFCFQKEATRKLAGK | 2.23 |
| LTEAEGWHFFCFQLEATRKLAGK | 1.73 |
| LTEAEGWHFFCFQVEATRKLAGK | 2.33 |
| LTEAEGWHFFCFQWEATRKLAGK | 2.8 |
| LTEAEGWHFFCFQQEATRKLAGK | 1.96 |
| LTEAEGWTFFCFQGEATRKLAGK | 3.27 |
| LTEAEGWRFFCFQGEATRKLAGK | 1.54 |
| LTEAEGWQFFCFQGEATRKLAGK | 2.15 |
| LTEAEGWVFFCFQGEATRKLAGK | 1.91 |
| LTEAEGWHFFCFQGEATRKDAGK | 2.99 |
| LTEAEGWHFFCFQGEATRKFAGK | 1.97 |
| LTEAEGWHFFCFQGEATRKAAGK | 2.36 |
| LTEAEGWHFFCFQGEATRKGAGK | 3.47 |
| LTEAEGWHFFCFQGEATRKEAGK | 3.6 |

| Variant | protein stability index |
| --- | --- |
| LTEAEGWHFFCIQGEATRKLAGK | 2.55 |
| LTEAEGWHFFCTQGEATRKLAGK | 3.88 |
| LTEAEGWHFFCAQGEATRKLAGK | 3.56 |
| LTEAEGWHFFCWQGEATRKLAGK | 2.35 |
| LTEAEGWHFFCNQGEATRKLAGK | 3.84 |
| LTEAEGWHFFCGQGEATRKLAGK | 3.42 |
| LTEAEGWHFFCRQGEATRKLAGK | 2.87 |
| LTEAEGWHFFCPQGEATRKLAGK | 3.85 |
| LTEAEGWHFFCCQGEATRKLAGK | 3.39 |
| LTEAEGWHFFCDQGEATRKLAGK | 4.53 |
| LTEAEGWHFFCKQGEATRKLAGK | 4.01 |
| LTEAEGWHFFCHQGEATRKLAGK | 3.95 |
| LTEAEGWHFFCEQGEATRKLAGK | 3.33 |
| LTEAEGWHFFCLQGEATRKLAGK | 2.48 |
| LTEAEGWHFFCQQGEATRKLAGK | 4.04 |
| LTEAEGWHFFCSQGEATRKLAGK | 3.73 |
| LTEAEGWHFFCMQGEATRKLAGK | 2.5 |
| LTEAEGWHFFCYQGEATRKLAGK | 2.48 |
| LTEAEGWHFFCFQGEATDKLAGK | 3.15 |
| LTEAEGWHFFCFQGEATFKLAGK | 1.5 |
| LTEAEGWHFFCFQGEATGKLAGK | 2.07 |
| LTEAEGWHFFCFQGEATIKLAGK | 3.84 |
| LTEAEGWHFFCFQGEATKKLAGK | 2.8 |
| LTEAEGWHFFCFQGEATQKLAGK | 1.87 |
| LTEAEGWHFFCFQGEATHKLAGK | 2.3 |

| Variant | protein stability index |
| --- | --- |
| LTEAEGWHFFCFQGEATLKLAGK | 1.53 |
| LTEAEGWHFFCFQGEATYKLAGK | 2.21 |
| LTEAEGWHFFCFQGEATCKLAGK | 1.92 |
| LTEAEGWHFFCFQGEATVKLAGK | 1.5 |
| LTEAEGWHFFCFQGEATPKLAGK | 2.58 |
| LTEAEGWHFFCFQGEATMKLAGK | 1.71 |
| LTEAEGWHFFCFQGEATNKLAGK | 2.59 |
| LTEAEGWHFFCFQGEATAKLAGK | 2.09 |
| LTEAEGWHFFCFQGEATTKLAGK | 2.03 |
| LTEAEGWHFFCFQGEWTRKLAGK | 1.08 |
| LTEAEGWHFFCFQGEITRKLAGK | 1.64 |
| LTEAEGWHFFCFQGEYTRKLAGK | 2.03 |
| LTEAEGWHFFCFQGERTRKLAGK | 1.98 |
| LTEAEGWHFFCFQGENTRKLAGK | 2.67 |
| LTEAEGWHFFCFQGETTRKLAGK | 1.68 |
| LTEAEGWHFFCFQGEETRKLAGK | 2.79 |
| LTEAEGWHFFCFQGELTRKLAGK | 3.02 |
| LTEAEGWHFFCFQGEMTRKLAGK | 2.1 |
| LTEAEGWHFFCFQGECTRKLAGK | 2.46 |
| LTEAEGWHFFCFQGEDTRKLAGK | 3.16 |
| LTEAEGWHFFCFQGESTRKLAGK | 2.12 |
| LTEAEGWHFFCFQGEPTRKLAGK | 2.33 |
| LTEAEGWHFFCFQGEFTRKLAGK | 1.59 |
| LTEAEGWHFFCFQGEVTRKLAGK | 2.3 |
| LTEAEGWHFFCFQGEQTRKLAGK | 2.58 |

| Variant | protein stability index |
| --- | --- |
| LTEAEGWHFFCFQGEHTRKLAGK | 2.63 |
| LTEAEGWHFFCFQGEGTRKLAGK | 2.38 |
| LTEAEGWHFFCFQGEATRMLAGK | 1.89 |
| LTEAEGWHFFCFQGEATRELAGK | 2.68 |
| LTEAEGWHFFCFQGEATRPLAGK | 2.1 |
| LTEAEGWHFFCFQGEATRGLAGK | 2.25 |
| LTEAEGWHFFCFQGEATRHLAGK | 2.58 |
| LTEAEGWHFFCFQGEATRYLAGK | 2.11 |
| LTEAEGWHFFCFQGEATRTLAGK | 2.05 |
| LTEAEGWHFFCFQGEATRILAGK | 2.39 |
| LTEAEGWHFFCFQGEATRALAGK | 2.35 |
| LTEAEGWHFFCFQGEATRWLAGK | 2 |
| LTEAEGWHFFCFQGEATRLLAGK | 2.93 |
| LTEAEGWHFFCFQGEATRQLAGK | 1.69 |
| LTEAEGWHFFCFQGEATRFLAGK | 1.94 |
| LTEAEGWHFFCFQGEATRDLAGK | 2.76 |
| LTEAEGWHFFCFQGEATRRLAGK | 2.23 |
| LTEAEGWHFFCFQGEATRNLAGK | 2.93 |
| LTEAEGWHFFCFQGEATRCLAGK | 2.41 |
| LTEAEGWHFFPFQGEATRKLAGK | 3.7 |
| LTEAEGWHFFRFQGEATRKLAGK | 2.33 |
| LTEAEGWHFFVFQGEATRKLAGK | 2.37 |
| LTEAEGWHFFEFQGEATRKLAGK | 3.27 |
| LTEAEGWHFFYFQGEATRKLAGK | 2.12 |
| LTEAEGWHFFIFQGEATRKLAGK | 1.66 |

| Variant | protein stability index |
| --- | --- |
| LTEAEGWHFFTFQGEATRKLAGK | 2.94 |
| LTEAEGWHFFKFQGEATRKLAGK | 3.5 |
| LTEAEGWHFFHFQGEATRKLAGK | 2.99 |
| LTEAEGWHFFAFQGEATRKLAGK | 2.09 |
| LTEAEGWHFFWFQGEATRKLAGK | 1.57 |
| LTEAEGWHFFNFQGEATRKLAGK | 3.04 |
| LTEAEGWHFFLFQGEATRKLAGK | 2.42 |
| LTEAEGWHFFDFQGEATRKLAGK | 3.45 |
| LTEAEGWHFFMFQGEATRKLAGK | 2.6 |
| LTEAEGWHFFSFQGEATRKLAGK | 3.68 |
| LTEAEGWHFFGFQGEATRKLAGK | 3.13 |
| LTEAEGWHFFQFQGEATRKLAGK | 3.46 |
| LTEAEGWHFFCFNGEATRKLAGK | 2.72 |
| LTEAEGWHFFCFKGEATRKLAGK | 2.63 |
| LTEAEGWHFFCFVGEATRKLAGK | 1.9 |
| LTEAEGWHFFCFPGEATRKLAGK | 2.94 |
| LTEAEGWHFFCFYGEATRKLAGK | 2.66 |
| LTEAEGWHFFCFGGEATRKLAGK | 1.61 |
| LTEAEGWHFFCFDGEATRKLAGK | 3.14 |
| LTEAEGWHFFCFEGEATRKLAGK | 2.89 |
| LTEAEGWHFFCFRGEATRKLAGK | 1.93 |
| LTEAEGWHFFCFAGEATRKLAGK | 2.14 |
| LTEAEGWHFFCFHGEATRKLAGK | 1.56 |
| LTEAEGWHFFCFCGEATRKLAGK | 1.48 |
| LTEAEGWHFFCFTGEATRKLAGK | 1.35 |

| Variant | protein stability index |
| --- | --- |
| LTEAEGWHFFCFMGEATRKLAGK | 1.07 |
| LTEAEGWHFFCFLGEATRKLAGK | 1.67 |
| LTEAEGWHHFCFQGEATRKLAGK | 3.48 |
| LTEAEGWHIFCFQGEATRKLAGK | 2.23 |
| LTEAEGWHNFCFQGEATRKLAGK | 3.52 |
| LTEAEGWHGFCFQGEATRKLAGK | 3.69 |
| LTEAEGWHAFCFQGEATRKLAGK | 3.78 |
| LTEAEGWHSFCFQGEATRKLAGK | 3.56 |
| LTEAEGWHEFCFQGEATRKLAGK | 4.43 |
| LTEAEGWHDFCFQGEATRKLAGK | 4.19 |
| LTEAEGWHQFCFQGEATRKLAGK | 3.63 |
| LTEAEGWHYFCFQGEATRKLAGK | 2.69 |
| LTEAEGWHRFCFQGEATRKLAGK | 3.77 |
| LTEAEGWHMFCFQGEATRKLAGK | 2.51 |
| LTEAEGWHCFCFQGEATRKLAGK | 3.12 |
| LTEAEGWHKFCFQGEATRKLAGK | 4.13 |
| LTEAEGWHTFCFQGEATRKLAGK | 3.64 |
| LTEAEGWHPFCFQGEATRKLAGK | 4.17 |
| LTEAEGWHLFCFQGEATRKLAGK | 1.85 |
